Like-named read-outs stand apart in the source and are kept apart here. One block for each binder: values may come before it.
How the values were obtained:
[1] = target: T1, 4H963-AA; assay: two-hybrid library CCmax; details: mean of both orientations;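 further: natural log of median RNA to DNA barcode read ratio; higher means stronger binding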
T1 chain: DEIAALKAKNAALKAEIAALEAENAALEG

[2] = target: T2, 4H745-AA; assay: two-hybrid library CCmax; details: mean of both orientations;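 further: natural log of median RNA to DNA barcode read ratio; higher means stronger binding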
T2 chain: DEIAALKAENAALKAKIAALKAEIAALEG

[3] = target: T3, 4H3865-AA; assay: two-hybrid library CCmax; details: mean of both orientations;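 further: natural log of median RNA to DNA barcode read ratio; higher means stronger binding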
T3 chain: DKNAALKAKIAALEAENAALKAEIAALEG

[4] = target: T4, 4H536-AA; assay: two-hybrid library CCmax; details: mean of both orientations;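 further: natural log of median RNA to DNA barcode read ratio; higher means stronger binding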
T4 chain: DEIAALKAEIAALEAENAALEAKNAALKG

[5] = target: T5, 4H629-AA; assay: two-hybrid library CCmax; details: mean of both orientations
T5 chain: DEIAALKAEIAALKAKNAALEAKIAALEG

[6] = target: T6, 4H850-AA; assay: two-hybrid library CCmax; details: mean of both orientations
T6 chain: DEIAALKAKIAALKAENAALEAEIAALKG

[7] = target: T7, 4H376-AA; assay: two-hybrid library CCmax; details: mean of both orientations
T7 chain: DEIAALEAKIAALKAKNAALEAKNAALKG

[8] = target: T8, 4H94-AA; assay: two-hybrid library CCmax; details: mean of both orientations
T8 chain: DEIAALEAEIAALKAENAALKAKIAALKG

[9] = target: T9, 4H688-AA; assay: two-hybrid library CCmax; details: mean of both orientations
T9 chain: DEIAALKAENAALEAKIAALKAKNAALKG

[10] = target: T10, 4H347-AA; assay: two-hybrid library CCmax
T10 chain: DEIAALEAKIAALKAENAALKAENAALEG

[11] = target: T11, 4H570-AA; assay: two-hybrid library CCmax; details: mean of both orientations
T11 chain: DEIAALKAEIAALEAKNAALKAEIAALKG

[12] = target: T12, 4H485-AA; assay: two-hybrid library CCmax; details: mean of both orientations
T12 chain: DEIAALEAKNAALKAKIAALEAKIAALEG

[13] = target: T13, 4H891-AA; assay: two-hybrid library CCmax; details: mean of both orientations
T13 chain: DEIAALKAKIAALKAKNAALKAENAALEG

[14] = target: T14, 4H3590-AA; assay: two-hybrid library CCmax; details: mean of both orientations
T14 chain: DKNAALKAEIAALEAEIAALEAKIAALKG

[15] = target: T15, 4H3381-AA; assay: two-hybrid library CCmax
T15 chain: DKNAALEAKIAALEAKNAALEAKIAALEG

[16] = target: T16, 4H458-AA; assay: two-hybrid library CCmax; details: mean of both orientations
T16 chain: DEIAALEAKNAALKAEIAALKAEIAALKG

[17] = target: T17, 4H710-AA; assay: two-hybrid library CCmax; details: mean of both orientations
T17 chain: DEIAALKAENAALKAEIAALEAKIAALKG

[18] = target: T18, 4H3493-AA; assay: two-hybrid library CCmax
T18 chain: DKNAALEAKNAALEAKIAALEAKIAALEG

[19] = target: T19, 4H3697-AA; assay: two-hybrid library CCmax; details: mean of both orientations
T19 chain: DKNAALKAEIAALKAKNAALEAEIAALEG

[20] = target: T20, 4H909-AA; assay: two-hybrid library CCmax; details: mean of both orientations
T20 chain: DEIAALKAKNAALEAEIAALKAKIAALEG

[21] = target: T21, 4H797-AA; assay: two-hybrid library CCmax; details: mean of both orientations
T21 chain: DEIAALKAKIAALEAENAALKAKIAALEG

[22] = target: T22, 4H3753-AA; assay: two-hybrid library CCmax; details: mean of both orientations
T22 chain: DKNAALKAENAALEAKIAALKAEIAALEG

[23] = target: T23, 4H406-AA; assay: two-hybrid library CCmax; details: mean of both orientations
T23 chain: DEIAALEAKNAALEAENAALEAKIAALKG

[24] = target: T24, 4H3395-AA; assay: two-hybrid library CCmax; details: mean of both orientations
T24 chain: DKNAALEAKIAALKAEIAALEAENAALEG

[25] = target: T25, 4H930-AA; assay: two-hybrid library CCmax; details: mean of both orientations
T25 chain: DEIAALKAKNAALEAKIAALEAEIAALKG

[26] = target: T26, 4H3410-AA; assay: two-hybrid library CCmax; details: mean of both orientations
T26 chain: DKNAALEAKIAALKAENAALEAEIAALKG

[27] = target: T27, APC6088-AA; assay: two-hybrid library CCmax; details: mean of both orientations
T27 chain: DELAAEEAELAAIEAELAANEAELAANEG

[28] = target: T28, APC3265-AA; assay: two-hybrid library CCmax
T28 chain: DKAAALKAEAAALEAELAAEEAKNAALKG

[29] = target: T29, APC9806-AA; assay: two-hybrid library CCmax; details: mean of both orientations
T29 chain: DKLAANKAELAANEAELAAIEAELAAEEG

[30] = target: T30, APC9291-AA; assay: two-hybrid library CCmax; details: mean of both orientations
T30 chain: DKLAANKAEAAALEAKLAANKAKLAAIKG

[31] = target: T31, APC7524-AA; assay: two-hybrid library CCmax; details: mean of both orientations
T31 chain: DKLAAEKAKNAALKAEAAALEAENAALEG

[32] = target: T32, APC3881-AA; assay: two-hybrid library CCmax; details: mean of both orientations
T32 chain: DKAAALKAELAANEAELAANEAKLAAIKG

[33] = target: T33, APC5009-AA; assay: two-hybrid library CCmax; details: mean of both orientations
T33 chain: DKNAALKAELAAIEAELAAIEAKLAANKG

[34] = target: T34, APC3354-AA; assay: two-hybrid library CCmax; details: mean of both orientations
T34 chain: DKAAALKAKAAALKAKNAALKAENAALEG

[35] = target: T35, APC3323-AA; assay: two-hybrid library CCmax; details: mean of both orientations
T35 chain: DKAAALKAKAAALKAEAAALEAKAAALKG

[36] = target: T36, APC8516-AA; assay: two-hybrid library CCmax; details: mean of both orientations
T36 chain: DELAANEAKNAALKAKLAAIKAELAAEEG

[37] = target: T37, APC4336-AA; assay: two-hybrid library CCmax; details: mean of both orientations
T37 chain: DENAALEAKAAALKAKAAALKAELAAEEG

[38] = target: T38, APC4100-AA; assay: two-hybrid library CCmax; details: mean of both orientations
T38 chain: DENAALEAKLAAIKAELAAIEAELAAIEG

[39] = target: T39, APC5531-AA; assay: two-hybrid library CCmax; details: mean of both orientations
T39 chain: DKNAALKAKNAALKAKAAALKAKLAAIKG

[40] = target: T40, APC9182-AA; assay: two-hybrid library CCmax; details: mean of both orientations
T40 chain: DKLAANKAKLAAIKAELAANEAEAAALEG

[41] = target: T41, APC9141-AA; assay: two-hybrid library CCmax; details: mean of both orientations
T41 chain: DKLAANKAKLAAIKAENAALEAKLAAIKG

[42] = target: T42, APC8401-AA; assay: two-hybrid library CCmax; details: mean of both orientations
T42 chain: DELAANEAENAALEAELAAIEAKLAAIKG

[43] = target: T43, APC542-AA; assay: two-hybrid library CCmax; details: mean of both orientations
T43 chain: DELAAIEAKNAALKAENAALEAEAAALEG

[44] = target: T44, O8-bS; assay: two-hybrid library CCNG1
T44 chain: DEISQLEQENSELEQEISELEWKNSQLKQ

[45] = target: T45, O7-bS; assay: two-hybrid library CCNG1
T45 chain: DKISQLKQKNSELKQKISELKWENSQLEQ

[46] = target: T46, O6-bS; assay: two-hybrid library CCNG1
T46 chain: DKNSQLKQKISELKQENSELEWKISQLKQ

[47] = target: T47, O9-bS; assay: two-hybrid library CCNG1
T47 chain: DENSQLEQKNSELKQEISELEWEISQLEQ

[48] = target: GCN2_T; assay: two-hybrid library CCmax; details: mean of both orientations
[49] = target: T48, 4H452-AA; assay: two-hybrid library CCmax; details: mean of both orientations
T48 chain: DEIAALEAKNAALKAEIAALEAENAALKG

[50] = target: T49, 4H_BCR; assay: two-hybrid library CCmax; details: mean of both orientations
T49 chain: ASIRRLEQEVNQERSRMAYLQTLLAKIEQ

[51] = target: 4H_GCN4; assay: two-hybrid library CCmax
[52] = target: T50, 4H_APH; assay: two-hybrid library CCmax; details: mean of both orientations
T50 chain: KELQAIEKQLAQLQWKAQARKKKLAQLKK

[53] = target: T51, 4H56-AA; assay: two-hybrid library CCmax; details: mean of both orientations
T51 chain: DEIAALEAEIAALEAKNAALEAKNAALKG

[54] = target: T52, O8; assay: two-hybrid library CCNG1
T52 chain: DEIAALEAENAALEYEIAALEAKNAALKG

[55] = target: T53, O7; assay: two-hybrid library CCNG1
T53 chain: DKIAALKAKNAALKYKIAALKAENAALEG

[56] = target: T54, O9; assay: two-hybrid library CCNG1
T54 chain: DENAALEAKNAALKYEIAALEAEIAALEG

Chain of 4H_GCN4 (chain, as listed by the source): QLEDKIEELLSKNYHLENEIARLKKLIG

B1: 4H3381-AA (peptide)
chain: DKNAALEAKIAALEAKNAALEAKIAALEG
interaction score [1]: -2.17
interaction score [2]: -1.6
interaction score [3]: -1.52
interaction score [4]: -1.65
interaction score [5]: -1.4
interaction score [6]: -1.85
interaction score [7]: -1.55
interaction score [8]: -1.76
interaction score [9]: -1.36
interaction score ([10]; mean of both orientations): -1.55
interaction score [11]: -1.34
interaction score [12]: -0.941
interaction score [13]: -1.56
interaction score [14]: -1.02
interaction score [15]: 0.71
interaction score [16]: -1.53
interaction score [17]: -1.49
interaction score ([18]; mean of both orientations): -1.77
interaction score [19]: -1.45
interaction score [20]: -1.66
interaction score [21]: -1.57
interaction score [22]: -1.71
interaction score [23]: -1.15
interaction score [24]: -1.66
interaction score [25]: -1.38
interaction score [26]: -1.09

B4: 4H347-AA (peptide)
chain: DEIAALEAKIAALKAENAALKAENAALEG
interaction score [48]: -2.14
interaction score [1]: -1.41
interaction score [49]: -0.224
interaction score [7]: -1.06
interaction score [50]: -1.88
interaction score [9]: -0.941
interaction score [10]: -0.315
interaction score [51]: -2.04
interaction score ([18]; mean of both orientations): -2.08
interaction score [52]: -1.79
interaction score [23]: -1.21
interaction score [53]: -0.0342

B5: 4H3493-AA (peptide)
chain: DKNAALEAKNAALEAKIAALEAKIAALEG
interaction score [1]: -1.58
interaction score [7]: -1.47
interaction score [9]: -1.63
interaction score [18]: 0.972
interaction score [23]: -1.82

Second part, the binder after the results:

interaction score [27]: -1.89
interaction score [28]: -1.08
interaction score [29]: -1.38
interaction score [30]: -1.49
interaction score [31]: -1.43
interaction score [32]: -1.45
interaction score [33]: -1.45
interaction score [34]: -1.86
interaction score [35]: -1.79
interaction score [36]: -1.33
interaction score [37]: -1.54
interaction score [38]: -1.05
interaction score [39]: -1.82
interaction score [40]: -1.78
interaction score [41]: -1.63
interaction score [42]: -1.36
interaction score [43]: -1.56
B2: APC3265-AA (peptide)
chain: DKAAALKAEAAALEAELAAEEAKNAALKG

interaction score [44]: -1.78
interaction score [45]: -0.489
interaction score [46]: -1.84
interaction score [47]: -0.588
B3: O6-bS (peptide)
chain: DKNSQLKQKISELKQENSELEWKISQLKQ

interaction score [54]: 1.54
interaction score [55]: -2.89
interaction score [56]: -2.46
B6: O7 (peptide)
chain: DKIAALKAKNAALKYKIAALKAENAALEG

From article PMC10397247
